Data published in the nanobody polyreactivity screen of Harvey et al. (2022).

Assay: yeast display, Sf9 membrane polyspecificity reagent, FACS + sequencing; frameworks hold sequencing errors
Outline: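 Nanobodies from a synthetic yeast display library (Saccharomyces cerevisiae BJ5465), induced 36–48 hours with galactose, were stained 1 hour at 4 °C with 10% biotinylated, detergent-solubilized Sf9 membrane reagent, enriched on streptavidin microbeads, then FACS-sorted. Anti-HA (expression) and streptavidin (reagent binding) fluorescence set low and high (top ~1%) gates. Polyreactivity labels come from the gate of origin. Genes were colony-PCR amplified, MiSeq 2 × 250 sequenced and filtered by CDR length.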

Row | Sequence | polyreactivity (PSR sort gate)
1 | QVQLVESGGGLVQAGGSLRLSCAASGSTFVYYAMGWYRQAPGKERELVAAINYSSGSTYYADSVKGRFTISRDNAKNTVYLQMNSLKPEDTAVYYCATDLLYYQYYSDYDYWGQGTQVTVSS | high polyreactivity
2 | QVQLVESGGGLVQAGGSLRLSCAASGSTFVYYAMGWYRQAPGKERELVAAISSSGGTTYYAVSEKGRFTISRDYGKNTGYLLMNSLKPEDTAVYFCAAPYASRGYEYWGQGTQVTVSS | high polyreactivity
3 | QVQLVESGGGLVQAGGSLRLSCAASGSTFVYYAMGWYRQAPGKERELVAAISWSGTRTYYADSVKGRFTISRDNAKNTVYLQMNSLKPEDTAVYYCAARLRANQVKLYYWGQGTQVTVSS | high polyreactivity
4 | QVQLVESGGGLVQAGGSLRLSCAASGSTFVYYAMGWYRQAPGKERELVAAITASGGRTYYADSVKGRFTISRDNAKNTVYLQMNSLKPEDTAVYYCNTVRPHGMDYWGQGTQVTVSS | high polyreactivity
5 | QVQLVESGGGLVQAGGSLRLSCAASGSTFVYYTMGCYRPAPGKETELVAAINGSGGSTYYADSVKRRFTISRDNAKNTVYLQMNSLKPEDTAVYYCDAVYWDGDDYWGQGTQVTVSS | high polyreactivity
6 | QVQLVESGGGLVQAGGSLRLSCAASGSTFWANAMGWYRPAPGKERELVAGITWNAGSTYYADSVKGRFTISRDNAKNTVYLQMNSLKPEDTAVYYCAAYYHFQGWGPGYNSWGQGTQVTVSS | low polyreactivity
7 | QVQLVESGGGLVQAGGSLRLSCAASGSTFWAYVMGWYRQAPGKERELVASISSGGSTNYADSVKGRFTISRDNAKNTVYLQMNSLKPEDTAVYYCAKRPYPYKYDYWGQGTQVTVSS | high polyreactivity
8 | QVQLVESGGGLVQAGGSLRLSCAASGSTFWDYAMGWYRQAPGKERELVAAINSGDSTNYADSVKGRFTISRDNAKNTVYFQMNSLKPEDTAVYYCNVDWYDKGYGGYDYWGQGTQVTVSS | low polyreactivity
9 | QVQLVESGGGLVQAGGSLRLSCAASGSTFWFNDMGWYRQAPGKEREFVAAISSIGGSTYYADSVKGRFTISRDNAKNTVYLQMNSLKPEDTAVYNCAVEVVRVYRYDYWGQGTQVTVSS | low polyreactivity
10 | QVQLVESGGGLVQAGGSLRLSCAASGSTFWFYALGWYRQAPGKERELVAAISSSGTTTYYADSVKGRFTISRDNAKNTVYLQINSLKPEDTAVSYCAAQYRGSYRTTYDYWGQCTQVTVSS | low polyreactivity
11 | QVQLVESGGGLVQAGGSLRLSCAASGSTFWGNAMGWYRPAPGKERELVAAISNGGSTNYADSVKGRFTISRDNAKNTVNLQMNSLKPEDTAVYYCAADGHTSNGVSLHGYWGQGTQVTVSS | low polyreactivity
12 | QVQLVESGGGLVQAGGSLRLSCAASGSTFWGNAMGWYRQAPGKERELVAAIDWSGGRTYYADSVKGRFTISRDNAKNTVYLQMNSLKPEDTAVYYCATRAWRGYVPYDYWGQGTQVTVSS | high polyreactivity
13 | QVQLVESGGGLVQAGGSLRLSCAASGSTFWGYAMGWYRQAPGKERELVAAINWIGGSDTFYADSVKGRFTISRDNAKNTVYLQMNSLKPEDTAVYYCAATYYNLPYSWGYDYWGQGTQVTVSS | low polyreactivity
14 | QVQLVESGGGLVQAGGSLRLSCAASGSTFWGYAMGWYRQAPGKERELVATINQSAGSTYYADSVKGRFTISRDYAKNTVYLQMNSLKPEDTAVYYCAAEARVQFSYDYWGQGTQVTVSS | low polyreactivity
15 | QVQLVESGGGLVQAGGSLRLSCAASGSTFWINAMGWYRPAPGKEREFVAAIRWNGGSTNYADSVKGRFTHSRDNAKNTVYLPMNSLKPEDTAVYYCAADGYIGWRHIYEYWGQGTQVTVSS | low polyreactivity
16 | QVQLVESGGGLVQAGGSLRLSCAASGSTFWKYAMGWYRQAPGKEREFVAAITRSGGNTYYADSVKGRFTISRDNAKNTVYLQMNSLKPEDTALYYCAIVYKLITSYRGFGYWGQGTQVTVSS | high polyreactivity
17 | QVQLVESGGGLVQAGGSLRLSCAASGSTFWKYVMGWYRPAPGKERELVAAITSRGGSTYADSVKGRFTISRDNAKNTVYLLMNSLKPEDTAVYYCAATKFWYYGYDYWGQGTQVTVSS | low polyreactivity
18 | QVQLVESGGGLVQAGGSLRLSCAASGSTFWLNAMGWYRQAPGKERELVAAITGLGGSTYYADSVKGRFTISRDTAKNTVYLQMNSLKPEDTAVYYCAAGAYRRNKSDYYYWGQGTEVTVSS | low polyreactivity
19 | QVQLVESGGGLVQAGGSLRLSCAASGSTFWLYAMGWYRPAPGKERELVASISSRGGSTYYADSVKGRFTISRDYAKNTVYLQMNSLKPEDTAVYYCAAKDIRYDDDYWGQGTQVTVSS | low polyreactivity
20 | QVQLVESGGGLVQAGGSLRLSCAASGSTFWNAMGWYRPGPGKERELVAAIRLSGGSTYYADSVKGRFTISRDNAKNTVYLQMNSLKPEDTAVYYCNADVTFGYWEYDYWGQGTQVTVSS | low polyreactivity
21 | QVQLVESGGGLVQAGGSLRLSCAASGSTFWPNAMGWYRQAPGKERELVAGITTSSGSTFYADSVKGRFTISRDNAKNTVYLQMNSLKPADTAVYYCNARVRRRRYKYDYWGQGTQVTVSS | high polyreactivity
22 | QVQLVESGGGLVQAGGSLRLSCAASGSTFWPYAMGWFRQAPGTERELVAAITWSGGRTYYADSVKGRFTLSRDNAKNTVYLQMNSLKPEDTAVYYCAAYYRQGIAPNGFDYWGQGTQVTVSS | high polyreactivity

Row | Sequence | polyreactivity (PSR sort gate)
23 | QVQLVESGGGLVQAGGSLRLSCAASGSTFWPYAMGWYRPAPGKERELVAAITNSGGSTYYADSVKGRFTISRDNAKYTVYLQMNSLKPEDTAVYYCAVRGVIYSYTPVNTYDYWGQGTQVTVSS | low polyreactivity
24 | QVQLVESGGGLVQAGGSLRLSCAASGSTFWQYAMGWYRQAPGKERELVAAISYSGGSTYYADSVKGRFTISRDNAKNTVYLQMNSLKPEDTAVYYCAKEYNVGFYLVFNRFDYWGQGTQVTVSS | low polyreactivity
25 | QVQLVESGGGLVQAGGSLRLSCAASGSTFWRYAMGWYRQAPGKERELVAGITWNGGSTYYADSVKGRFTISRDNAKNTVYLQMNSLKPEDTAVYYCAARRTWGYIYRLGYGMDYWGQGTQVTVSS | high polyreactivity
26 | QVQLVESGGGLVQAGGSLRLSCAASGSTFWSNAMGWYRQAPGKERELVAAISISDGNTYYADSVKVRFTISRDNAKNTVYLQMNSLKPEDTAVYYCATVGSEDGDPGFDYWGQGTQVTVSS | low polyreactivity
27 | QVQLVESGGGLVQAGGSLRLSCAASGSTFWSYAMGWYRQAPGKEREFVAAISSSDDSTYYADSVKGRFTISRDNAKNTVYLQMNSLKPEDTAVYYCATSWYIYPYDYWGQGTQVTVSS | low polyreactivity
28 | QVQLVESGGGLVQAGGSLRLSCAASGSTFWSYAMGWYTQAPGKERELVAVITGSDGRTFYADSVKGRFTISRDNAKNTVYLQMNSLKPEDTAVYYCAADAVFRATRYDRSTSEDDYWGQGTQVTVSS | low polyreactivity
29 | QVQLVESGGGLVQAGGSLRLSCAASGSTFWVNTMGWYRQAPGKERELVAAISSNGGSTYYADSVKGRFTISRDNAKNTVYLQMNSLKPEDTAVYYCATRQSWSDYYLNVDYDYRGQGTQVTVSS | low polyreactivity
30 | QVQLVESGGGLVQAGGSLRLSCAASGSTFWVYTMGWYRQAPGKERALVAAINYSDGSTYYADSVKGRFTISRENAKNTVYLQMNSLKPEDTAVYYCAAGSDPTGRRYEYWGQGTQVTVSS | low polyreactivity
31 | QVQLVESGGGLVQAGGSLRLSCAASGSTFWVYTMGWYRQAPGKERELVAAINYSDGSTYYADSVKGRFTISRDNAKNTVYLQMNRLKPEDTAVYYCAAGSDPTGRRYDYWGQGTQVTVSS | low polyreactivity
32 | QVQLVESGGGLVQAGGSLRLSCAASGSTFWWYAMGWYRQAPGKERELVADITTGGSTNYADSVKGRFTISRDNAKNTVYLQMNSLKPEDTAVYYCNADGVTPYTWRLRYFKYHFDYWGQGTQVTVSS | low polyreactivity
33 | QVQLVESGGGLVQAGGSLRLSCAASGSTFWYNAMGWYRQAPGKERELVARISYSGGSTYYADSVKGRFTISRDNAKNTVYLQMNSLKPEDTAVYYCAARRPYKYDYWGQGTQVTVSS | high polyreactivity
34 | QVQLVESGGGLVQAGGSLRLSCAASGSTFWYYAMGWFRQAPGKERELVAAITRGASTNYADSVKGRFTISRDNAKNTVYLQMNSLKPEDTAVYYCAAGPARWKGYYWGQGTQVTVSS | high polyreactivity
35 | QVQLVESGGGLVQAGGSLRLSCAASGSTFWYYAMGWYRPAPGKERELVAAITISGGSTYYADSVKGRFTISRDNAKNTVYLQMNSLKPEDTAVYYCATDDTHRVGWFDYWGQGTQVTVSS | low polyreactivity
36 | QVQLVESGGGLVQAGGSLRLSCAASGSTFWYYAMGWYRQAPGKERELVAAIRWSDGSTYYADSVKGRFTISRDNAKNTVYLQMNSLKPEDTAVYYCEYYYWGQGTQVTVSS | low polyreactivity
37 | QVQLVESGGGLVQAGGSLRLSCAASGSTFWYYAMGWYRQAPGKERELVATITTSGGNTYYADSVKGRFTISRDNAKNTVYLQMNSLKPEDTAVYYCAARRYRASSRGYGYWGQGTQVTVSS | high polyreactivity
38 | QVQLVESGGGLVQAGGSLRLSCAASGSTFWYYAMGWYRQAPGKEWEFVAAIKWSGGRTDYADSVKGRFTISRDIAKNTVYLQMNSLKAEDTAVYYFAADYSFRSFPIDANVLGYEYWGQGTQVTVSS | high polyreactivity
39 | QVQLVESGGGLVQAGGSLRLSCAASGSTFWYYTMGSYRQAPGKERELVAAIRYSGTRTYYADSVKGRFTISRDNAKTTVYLQMNSLKPEDTAVYYCARYRTPGYQAYLYDYWGQGTQVTVSS | low polyreactivity
40 | QVQLVESGGGLVQAGGSLRLSCAASGSTFYANAMGWYRQAPGKERELVAAITSGGSTNYADSVKGRFTISRDNAKNTVYLQMNSLKPEDTAVYYCATPVNRERHAEDYWGQGTQVTVSS | low polyreactivity
41 | QVQLVESGGGLVQAGGSLRLSCAASGSTFYANVMGWYRQAPGKDRELVGAIEGSGGRTDYADSVKGRFTISRDNAKNTVYLQMHSLKPEDTAVYYCAKKRIVPVKQFGRDYNYWGQGTQVTVSS | high polyreactivity
42 | QVQLVESGGGLVQAGGSLRLSCAASGSTFYAYALGWYRQAPGKERELVAAISSDGTNYADSVKGRFTISRDNAKNTVYLQMNSLKPVDTAVYYCAADLLLYSSQDNDYWGQGTQVTVSS | low polyreactivity
43 | QVQLVESGGGLVQAGGSLRLSCAASGSTFYAYAMGWYRHAPGKERELVAAIDSGGSTYYADSVKGRFTISRDNAKNTVYFQMNSLKPEDTAVYYCAVRHRYTRAYWGRDYWGQGTQVTVSS | low polyreactivity
